Publication PMC9482650, “Quantitative fragmentomics allow affinity mapping of interactomes” (Nature Communications, 2022)

T1: ARHGAP21, Q5T5U3
T1 sequence (Q5T5U3 45-169, limits assumed, looked up): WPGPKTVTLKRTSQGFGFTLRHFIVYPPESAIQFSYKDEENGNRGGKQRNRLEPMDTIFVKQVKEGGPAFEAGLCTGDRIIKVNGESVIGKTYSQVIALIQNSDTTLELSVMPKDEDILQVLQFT

T2: MPDZ_5, O75970
T2 sequence (O75970 695-796, limits assumed, looked up): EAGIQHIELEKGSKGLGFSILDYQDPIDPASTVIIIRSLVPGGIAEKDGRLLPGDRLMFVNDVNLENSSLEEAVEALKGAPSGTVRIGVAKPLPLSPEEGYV

T3: MPDZ_10, O75970
T3 sequence (O75970 1624-1722, limits assumed, looked up): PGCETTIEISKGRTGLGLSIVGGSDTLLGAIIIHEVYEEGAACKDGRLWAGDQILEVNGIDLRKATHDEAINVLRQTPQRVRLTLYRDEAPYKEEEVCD

T4: DLG3_3, Q92796
T4 sequence (Q92796 374-475, limits assumed, looked up): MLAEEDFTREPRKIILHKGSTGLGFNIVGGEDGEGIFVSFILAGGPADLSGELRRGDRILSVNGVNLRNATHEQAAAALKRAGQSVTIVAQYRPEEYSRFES

T5: PDZD2_2, O15018
T5 sequence (O15018 329-429, limits assumed, looked up): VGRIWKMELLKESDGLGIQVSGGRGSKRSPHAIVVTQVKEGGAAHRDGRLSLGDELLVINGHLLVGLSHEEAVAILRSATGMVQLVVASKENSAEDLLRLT

T6: NHERF3_1, Q5T2W1
T6 sequence (Q5T2W1 4-100, limits assumed, looked up): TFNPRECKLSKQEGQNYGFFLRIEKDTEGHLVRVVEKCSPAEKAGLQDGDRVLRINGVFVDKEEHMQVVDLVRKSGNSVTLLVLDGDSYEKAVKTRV

T7: APBA1_2, Q02410
T7 sequence (Q02410 742-832, limits assumed, looked up): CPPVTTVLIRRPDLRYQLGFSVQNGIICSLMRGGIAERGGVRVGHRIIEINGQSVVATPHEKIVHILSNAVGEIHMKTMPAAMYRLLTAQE

T8: MPP7, Q5T2T1
T8 sequence (Q5T2T1 134-230, limits assumed, looked up): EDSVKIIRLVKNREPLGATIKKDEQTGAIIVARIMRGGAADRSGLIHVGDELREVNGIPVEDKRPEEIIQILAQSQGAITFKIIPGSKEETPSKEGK

T9: APBA1_1, Q02410
T9 sequence (Q02410 651-752, limits assumed, looked up): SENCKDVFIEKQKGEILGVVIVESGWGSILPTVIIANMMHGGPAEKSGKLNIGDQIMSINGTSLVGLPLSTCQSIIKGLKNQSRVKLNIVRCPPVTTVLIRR

T10: TX1BP3, O14907
T10 sequence (O14907 10-122, limits assumed, looked up): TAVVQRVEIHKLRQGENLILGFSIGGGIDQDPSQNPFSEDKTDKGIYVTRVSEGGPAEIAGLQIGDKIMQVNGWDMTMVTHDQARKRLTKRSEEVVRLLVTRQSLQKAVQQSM


Biological target: T1, ARHGAP21, Q5T5U3
Test: holdup assay
Design: key: below the threshold = too weak to quantify, mostly under pKd 3.1 to 4
Conditions: plain residues with an end cap or a label only (N-terminal biotin on a linker: ahx)

For QDEKVKESYV [ABCA1, O95477], which pKd is on record?
Its pKd is “below the threshold”.

Biological target: T2, MPDZ_5, O75970
Test: holdup assay
Design: key: below the threshold = too weak to quantify, mostly under pKd 3.1 to 4
Conditions: plain residues with an end cap or a label only (N-terminal biotin on a linker: ahx)

With QDEKVKESYV [ABCA1, O95477] as the binder, how does the pKd read?
Its pKd is 3.63.

Biological target: T3, MPDZ_10, O75970
Test: holdup assay
Design: key: below the threshold = too weak to quantify, mostly under pKd 3.1 to 4
Conditions: plain residues with an end cap or a label only (N-terminal biotin on a linker: ahx)

QDEKVKESYV [ABCA1, O95477] was tested. Which pKd did it give?
Its pKd is 4.29.

Biological target: PICK1, Q9NRD5
Test: holdup assay
Design: key: below the threshold = too weak to quantify, mostly under pKd 3.1 to 4
Conditions: plain residues with an end cap or a label only (N-terminal biotin on a linker: ahx)

PICK1, Q9NRD5, sequence (Q9NRD5 17-115): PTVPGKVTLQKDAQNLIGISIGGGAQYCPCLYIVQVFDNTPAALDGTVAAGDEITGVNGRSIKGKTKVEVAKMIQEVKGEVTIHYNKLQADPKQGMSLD

For QDEKVKESYV [ABCA1, O95477], which pKd is on record?
The pKd was 3.76.

Biological target: T4, DLG3_3, Q92796
Test: holdup assay
Design: key: below the threshold = too weak to quantify, mostly under pKd 3.1 to 4
Conditions: plain residues with an end cap or a label only (N-terminal biotin on a linker: ahx)

Which pKd does the source give for QDEKVKESYV [ABCA1, O95477] here?
Its pKd is 3.97.

Biological target: PARD3_3, Q8TEW0
Test: holdup assay
Design: key: below the threshold = too weak to quantify, mostly under pKd 3.1 to 4
Conditions: plain residues with an end cap or a label only (N-terminal biotin on a linker: ahx)

PARD3_3, Q8TEW0, sequence (Q8TEW0 582-685): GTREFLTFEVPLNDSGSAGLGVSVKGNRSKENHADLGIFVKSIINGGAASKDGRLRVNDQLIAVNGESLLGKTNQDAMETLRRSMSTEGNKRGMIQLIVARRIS

QDEKVKESYV [ABCA1, O95477] was tested. Which pKd did it give?
Its pKd is “below the threshold”.

Biological target: SCRIB_2, Q14160
Test: holdup assay
Design: key: below the threshold = too weak to quantify, mostly under pKd 3.1 to 4
Conditions: plain residues with an end cap or a label only (N-terminal biotin on a linker: ahx)

SCRIB_2, Q14160, sequence (Q14160 857-960): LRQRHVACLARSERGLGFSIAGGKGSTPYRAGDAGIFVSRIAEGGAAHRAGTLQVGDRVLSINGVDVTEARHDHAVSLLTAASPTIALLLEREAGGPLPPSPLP

For QDEKVKESYV [ABCA1, O95477], which pKd is on record?
The pKd was 4.61.

Biological target: NHERF4_2, Q86UT5
Test: holdup assay
Design: key: below the threshold = too weak to quantify, mostly under pKd 3.1 to 4
Conditions: plain residues with an end cap or a label only (N-terminal biotin on a linker: ahx)

NHERF4_2, Q86UT5, sequence (Q86UT5 220-308): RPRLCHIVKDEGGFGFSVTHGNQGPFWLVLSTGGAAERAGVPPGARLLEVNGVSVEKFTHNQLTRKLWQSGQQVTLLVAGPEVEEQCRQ

QDEKVKESYV [ABCA1, O95477] was tested. Which pKd did it give?
Its pKd is “below the threshold”.

Biological target: DLG4_1, P78352
Test: holdup assay
Design: key: below the threshold = too weak to quantify, mostly under pKd 3.1 to 4
Conditions: plain residues with an end cap or a label only (N-terminal biotin on a linker: ahx)

DLG4_1, P78352, sequence (P78352 62-152): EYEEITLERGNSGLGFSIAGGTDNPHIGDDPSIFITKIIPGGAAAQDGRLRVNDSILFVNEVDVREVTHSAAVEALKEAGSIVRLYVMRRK

How did the pKd turn out when QDEKVKESYV [ABCA1, O95477] was run?
Its pKd is 4.52.

Biological target: IL16_1, Q14005
Test: holdup assay
Design: key: below the threshold = too weak to quantify, mostly under pKd 3.1 to 4
Conditions: plain residues with an end cap or a label only (N-terminal biotin on a linker: ahx)

IL16_1, Q14005, sequence (Q14005 210-306): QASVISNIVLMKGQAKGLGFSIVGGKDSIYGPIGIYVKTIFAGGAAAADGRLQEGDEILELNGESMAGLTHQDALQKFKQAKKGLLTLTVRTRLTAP

For QDEKVKESYV [ABCA1, O95477], which pKd is on record?
Its pKd is 4.91.

Biological target: MAGI2_3, Q86UL8
Test: holdup assay
Design: key: below the threshold = too weak to quantify, mostly under pKd 3.1 to 4
Conditions: plain residues with an end cap or a label only (N-terminal biotin on a linker: ahx)

MAGI2_3, Q86UL8, sequence (Q86UL8 600-682): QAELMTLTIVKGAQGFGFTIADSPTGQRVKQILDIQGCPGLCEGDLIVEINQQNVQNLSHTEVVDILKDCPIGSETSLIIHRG

With QDEKVKESYV [ABCA1, O95477] as the binder, how does the pKd read?
Its pKd is 4.85.

Biological target: T5, PDZD2_2, O15018
Test: holdup assay
Design: key: below the threshold = too weak to quantify, mostly under pKd 3.1 to 4
Conditions: plain residues with an end cap or a label only (N-terminal biotin on a linker: ahx)

With QDEKVKESYV [ABCA1, O95477] as the binder, how does the pKd read?
Its pKd is 5.66.

Biological target: LDB3, O75112
Test: holdup assay
Design: key: below the threshold = too weak to quantify, mostly under pKd 3.1 to 4
Conditions: plain residues with an end cap or a label only (N-terminal biotin on a linker: ahx)

LDB3, O75112, sequence (O75112 1-94): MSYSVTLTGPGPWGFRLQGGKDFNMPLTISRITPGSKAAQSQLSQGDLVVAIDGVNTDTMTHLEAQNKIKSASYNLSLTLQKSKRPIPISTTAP

Which pKd does the source give for QDEKVKESYV [ABCA1, O95477] here?
The pKd was 3.53.

Biological target: Inadl_4, Q8NI35
Test: holdup assay
Design: key: below the threshold = too weak to quantify, mostly under pKd 3.1 to 4
Conditions: plain residues with an end cap or a label only (N-terminal biotin on a linker: ahx)

Inadl_4, Q8NI35, sequence (Q8NI35 547-651): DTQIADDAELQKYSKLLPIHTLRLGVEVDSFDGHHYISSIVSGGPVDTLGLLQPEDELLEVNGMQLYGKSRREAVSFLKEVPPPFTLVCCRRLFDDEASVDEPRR

Which pKd does the source give for QDEKVKESYV [ABCA1, O95477] here?
Its pKd is “below the threshold”.

Biological target: NHERF2_2, Q15599
Test: holdup assay
Design: key: below the threshold = too weak to quantify, mostly under pKd 3.1 to 4
Conditions: plain residues with an end cap or a label only (N-terminal biotin on a linker: ahx)

NHERF2_2, Q15599, sequence (Q15599 142-238): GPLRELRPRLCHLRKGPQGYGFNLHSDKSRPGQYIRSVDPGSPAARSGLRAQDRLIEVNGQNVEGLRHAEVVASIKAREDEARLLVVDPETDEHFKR

For QDEKVKESYV [ABCA1, O95477], which pKd is on record?
Its pKd is 3.64.

Biological target: MAST2, Q6P0Q8
Test: holdup assay
Design: key: below the threshold = too weak to quantify, mostly under pKd 3.1 to 4
Conditions: plain residues with an end cap or a label only (N-terminal biotin on a linker: ahx)

MAST2, Q6P0Q8, sequence (Q6P0Q8 1099-1202): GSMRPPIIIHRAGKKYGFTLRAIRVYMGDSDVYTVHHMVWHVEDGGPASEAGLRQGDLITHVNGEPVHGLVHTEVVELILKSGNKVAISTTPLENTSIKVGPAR

For QDEKVKESYV [ABCA1, O95477], which pKd is on record?
The pKd was 4.68.

Biological target: T6, NHERF3_1, Q5T2W1
Test: holdup assay
Design: key: below the threshold = too weak to quantify, mostly under pKd 3.1 to 4
Conditions: plain residues with an end cap or a label only (N-terminal biotin on a linker: ahx)

How did the pKd turn out when QDEKVKESYV [ABCA1, O95477] was run?
Its pKd is 5.12.

Biological target: GRIP2_3, Q9C0E4
Test: holdup assay
Design: key: below the threshold = too weak to quantify, mostly under pKd 3.1 to 4
Conditions: plain residues with an end cap or a label only (N-terminal biotin on a linker: ahx)

GRIP2_3, Q9C0E4, sequence (Q9C0E4 238-339): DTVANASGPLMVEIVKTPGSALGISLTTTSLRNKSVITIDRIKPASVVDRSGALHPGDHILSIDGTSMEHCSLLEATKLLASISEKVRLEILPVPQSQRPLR

QDEKVKESYV [ABCA1, O95477] was tested. Which pKd did it give?
The pKd was “below the threshold”.

Biological target: GRID2IP_2, A4D2P6
Test: holdup assay
Design: key: below the threshold = too weak to quantify, mostly under pKd 3.1 to 4
Conditions: plain residues with an end cap or a label only (N-terminal biotin on a linker: ahx)

GRID2IP_2, A4D2P6, sequence (A4D2P6 272-370): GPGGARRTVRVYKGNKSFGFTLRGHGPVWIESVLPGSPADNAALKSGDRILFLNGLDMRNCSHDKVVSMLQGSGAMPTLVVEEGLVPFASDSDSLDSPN

Which pKd does the source give for QDEKVKESYV [ABCA1, O95477] here?
The pKd was 3.97.

Biological target: GRIP2_5, Q9C0E4
Test: holdup assay
Design: key: below the threshold = too weak to quantify, mostly under pKd 3.1 to 4
Conditions: plain residues with an end cap or a label only (N-terminal biotin on a linker: ahx)

GRIP2_5, Q9C0E4, sequence (Q9C0E4 544-642): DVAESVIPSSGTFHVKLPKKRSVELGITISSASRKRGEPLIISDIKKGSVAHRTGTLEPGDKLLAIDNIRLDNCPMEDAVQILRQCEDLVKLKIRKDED

With QDEKVKESYV [ABCA1, O95477] as the binder, how does the pKd read?
The pKd was “below the threshold”.

Biological target: T7, APBA1_2, Q02410
Test: holdup assay
Design: key: below the threshold = too weak to quantify, mostly under pKd 3.1 to 4
Conditions: plain residues with an end cap or a label only (N-terminal biotin on a linker: ahx)

How did the pKd turn out when QDEKVKESYV [ABCA1, O95477] was run?
The pKd was 4.29.

Biological target: T8, MPP7, Q5T2T1
Test: holdup assay
Design: key: below the threshold = too weak to quantify, mostly under pKd 3.1 to 4
Conditions: plain residues with an end cap or a label only (N-terminal biotin on a linker: ahx)

Which pKd does the source give for QDEKVKESYV [ABCA1, O95477] here?
The pKd was “below the threshold”.

Biological target: T9, APBA1_1, Q02410
Test: holdup assay
Design: key: below the threshold = too weak to quantify, mostly under pKd 3.1 to 4
Conditions: plain residues with an end cap or a label only (N-terminal biotin on a linker: ahx)

QDEKVKESYV [ABCA1, O95477] was tested. Which pKd did it give?
Its pKd is “below the threshold”.

Biological target: NOS1, P29475
Test: holdup assay
Design: key: below the threshold = too weak to quantify, mostly under pKd 3.1 to 4
Conditions: plain residues with an end cap or a label only (N-terminal biotin on a linker: ahx)

NOS1, P29475, sequence (P29475 9-101): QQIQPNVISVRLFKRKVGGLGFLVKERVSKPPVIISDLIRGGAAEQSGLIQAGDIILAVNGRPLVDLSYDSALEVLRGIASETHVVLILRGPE

For QDEKVKESYV [ABCA1, O95477], which pKd is on record?
Its pKd is 3.66.

Biological target: NHERF4_4, Q86UT5
Test: holdup assay
Design: key: below the threshold = too weak to quantify, mostly under pKd 3.1 to 4
Conditions: plain residues with an end cap or a label only (N-terminal biotin on a linker: ahx)

NHERF4_4, Q86UT5, sequence (Q86UT5 464-550): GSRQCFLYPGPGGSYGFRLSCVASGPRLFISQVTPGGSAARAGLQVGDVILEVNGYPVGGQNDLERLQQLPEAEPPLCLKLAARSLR

How did the pKd turn out when QDEKVKESYV [ABCA1, O95477] was run?
The pKd was “below the threshold”.

Biological target: MAGI1_1, Q96QZ7
Test: holdup assay
Design: key: below the threshold = too weak to quantify, mostly under pKd 3.1 to 4
Conditions: plain residues with an end cap or a label only (N-terminal biotin on a linker: ahx)

MAGI1_1, Q96QZ7, sequence (Q96QZ7 1-106): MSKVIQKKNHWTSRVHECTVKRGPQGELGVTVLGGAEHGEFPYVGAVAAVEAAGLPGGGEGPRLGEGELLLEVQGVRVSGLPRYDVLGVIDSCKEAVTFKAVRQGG

How did the pKd turn out when QDEKVKESYV [ABCA1, O95477] was run?
The pKd was “below the threshold”.

Biological target: T10, TX1BP3, O14907
Test: holdup assay
Design: key: below the threshold = too weak to quantify, mostly under pKd 3.1 to 4
Conditions: plain residues with an end cap or a label only (N-terminal biotin on a linker: ahx)

QDEKVKESYV [ABCA1, O95477] was tested. Which pKd did it give?
The pKd was 4.74.
